Test results taken from patent publication US20200317802A1.

Assays:
[1] = molecular target: activated human MMP-1 (human) (UniProt P03956)
[2] = molecular target: activated human MMP-14 (human) (UniProt P50281)

activated human MMP-1 (human), sequence (P03956 100-469 limits assumed): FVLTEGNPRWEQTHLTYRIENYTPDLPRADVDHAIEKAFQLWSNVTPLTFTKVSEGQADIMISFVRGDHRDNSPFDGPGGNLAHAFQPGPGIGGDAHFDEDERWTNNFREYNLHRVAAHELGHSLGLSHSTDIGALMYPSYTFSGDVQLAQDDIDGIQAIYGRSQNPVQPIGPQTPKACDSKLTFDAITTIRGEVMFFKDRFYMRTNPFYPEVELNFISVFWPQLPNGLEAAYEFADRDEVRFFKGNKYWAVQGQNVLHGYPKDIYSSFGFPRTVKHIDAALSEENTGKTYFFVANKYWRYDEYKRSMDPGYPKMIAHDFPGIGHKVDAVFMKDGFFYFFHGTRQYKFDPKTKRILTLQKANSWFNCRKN

IC50 (read off the curve) (human MMP-1 activity, FRET peptide substrate) [1]: 0.9 nM
IC50 (read off the curve) (human MMP-14 activity, FRET peptide substrate) [2]: 6 nM
Substance: TIMP2 (from UniProt P16035 27-220)
